Data set [1] relates to Six1 + Eya2 Eya domain (ED) complex. The experiment in a line: EMSA. The settings on record: addition of Eya ED increases affinity.
The next data set deals with T1, Six1, full-length (UniProt Q15475).
T1 sequence: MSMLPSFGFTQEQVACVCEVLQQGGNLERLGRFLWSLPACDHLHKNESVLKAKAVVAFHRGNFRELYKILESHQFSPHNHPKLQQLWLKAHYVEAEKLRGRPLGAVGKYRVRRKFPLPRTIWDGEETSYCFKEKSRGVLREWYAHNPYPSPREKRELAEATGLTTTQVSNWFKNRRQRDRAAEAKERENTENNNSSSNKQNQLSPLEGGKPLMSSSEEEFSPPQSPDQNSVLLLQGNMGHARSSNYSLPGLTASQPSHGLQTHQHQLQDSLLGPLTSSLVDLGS
The experiment in a line: EMSA. The settings on record: Six1 alone. Background: Mobility shift assays separate free from complexed probe on a gel.

The test system of data set [2] is Six1, near full-length (natural degradation product ending at residue 259). The experiment in a line: EMSA. The note with it: preliminary estimate.
In data set [3] the test system is Six1 + Eya2 Eya domain (ED) complex. As to the kind of experiment: FP. The settings on record: DMSO no effect.
Data set [4] deals with Six1, near full-length (natural degradation product ending at residue 259). The experiment in a line: FP. The settings on record: 28 kD Six1 with 10 kD fluorescein DNA, single cuvette.

As for 18 nt dsDNA containing MEF3 site, the Kd in data set [1] came out at 300 nM; with Six1, full-length it was 1000 nM.

With 16 nt DNA containing MEF3 motif, the Kd in data set [2] is 1000 nM.

As for 5'-fluorescein 16 nt MEF3 dsDNA, the binding (fold increase in anisotropy) in data set [3] was 3. For the same substance, the binding (fold increase in polarization) in data set [4] was above 4.

Usually Kd stands for the constant that tells how readily two partners part at equilibrium.
